Results as given in paper PMC9776664, “Crystal structure of the feruloyl esterase from Lentilactobacillus buchneri reveals a novel homodimeric state” (Frontiers in Microbiology, 2022).

Key:
[1] = molecular target: T1, LbFAE (Lentilactobacillus buchneri, UniProt D7RU28); assay: X-ray crystal structure, […] Å, wild-type crystal soaked with FA; type: binding; conditions: active site; crystal grown with 0.1 M sodium cacodylate pH 6.5, 0.2 M calcium acetate, PEG 8000
T1 construct: gene faeA; synthetic gene in pNIC28-Bsa4, E. coli BL21(DE3)-T1; Ni-NTA and SEC; homodimer about 60 kDa; monomer model 260 residues; catalytic triad Ser114, Asp206, His233

[2] = molecular target: the molecule itself; assay: SEC; HiLoad 16/60 Superdex 200 prep grade, 20 mM Hepes pH 7.5, 150 mM NaCl, 1 ml/min, 4°C; calibrated with ferritin, aldolase, conalbumin, ribonuclease A
[3] = substrate: COc1cc(/C=C/C(=O)Oc2ccc([N+](=O)[O-])cc2)ccc1O; assay: spectrophotometric assay, Michaelis-Menten fit; type: biochemical, Lentilactobacillus buchneri; conditions: pH 6.5, 40 °C, free enzyme
Description: spectrophotometric assay, Michaelis-Menten fit on LbFAE

[4] = substrate: COC(=O)/C=C/c1ccc(O)c(OC)c1; assay: HPLC of released ferulic acid, Michaelis-Menten fit; type: biochemical, Lentilactobacillus buchneri; conditions: pH 6.5, 40 °C, free enzyme
Description: HPLC of released ferulic acid, Michaelis-Menten fit on LbFAE

COc1cc(/C=C/C(=O)O)ccc1O [FA, 4-hydroxy-3-methoxy-cinnamic acid]
X-ray crystal structure, 1.90 Å, wild-type crystal soaked with FA [1]: only FA (i.e., the product) resulted in a complex with LbFAE

B1: feruloyl esterase (LbFAE) from Lentilactobacillus buchneri LN 4017, wild type (enzyme, UniProt D7RU28 1-260, looked up)
chain: MIKFVTTEINGLTLRGTAHVPDGEPGQQFPTVLMFHGFGAVRDEGFRLFIQMSNRLMENGIAAVRFDFGCHGESDGEFEDFTFSQELNEGSALIDAVKSMSFVDSTKFSLLGESLGSVAASIVAGKRSTELTSLCMWSPAASFLDEILNDHTLQGKTVDNVEKDGYFDFYGLKLGKAFFDDLKNINIFDNAKKYQGPVKIVYGTNDFIPEKYSHKYMDGYENGELVIVQDGDHGWQSVPSRKRILDETMKFFRKTLLEAK
notes: Feruloyl esterase annotated as type-A FAE (faeA) from L. buchneri silage additive strain LN4017 (ATCC PTA-6138); synthetic gene amplified with primers from the ATG start to the stop codon; the monomer structure includes 260 amino acids; Cloned into pNIC28-Bsa4 by LIC; Theoretical mass with His6 tag and TEV site 31.6 kDa; also called faeA; source: E. coli BL21(DE3)-T1, purified (Ni-NTA, SEC)
stoichiometry N [2]: 2 | Km [3]: 0.9 mM | Vmax [3]: 6.9 µmol/min/mg | kcat [3]: 6.7 s⁻¹ | kcat/Km [3]: 7540 M⁻¹ s⁻¹ | Km [4]: 0.065 mM | Vmax [4]: 6.57 µmol/min/mg | kcat [4]: 16.3 s⁻¹ | kcat/Km [4]: 252000 M⁻¹ s⁻¹
